According to IntAct's records for PubMed 18617507:

B1: Serine/threonine-protein kinase VRK1 (Homo sapiens), Q99986 (parent)
chain: MPRVKAAQAGRQSSAKRHLAEQFAVGEIITDMAKKEWKVGLPIGQGGFGCIYLADMNSSESVGSDAPCVVKVEPSDNGPLFTELKFYQRAAKPEQIQKWIRTRKLKYLGVPKYWGSGLHDKNGKSYRFMIMDRFGSDLQKIYEANAKRFSRKTVLQLSLRILDILEYIHEHEYVHGDIKASNLLLNYKNPDQVYLVDYGLAYRYCPEGVHKEYKEDPKRCHDGTIEFTSIDAHNGVAPSRRGDLEILGYCMIQWLTGHLPWEDNLKDPKYVRDSKIRYRENIASLMDKCFPEKNKPGEIAKYMETVKLLDYTEKPLYENLRDILLQGLKAIGSKDDGKLDLSVVENGGLKAKTITKKRKKEIEESKEPGVEDTEWSNTQTEEAIQTRSRTRKRVQK

Variants of: B1
Settings: with ran_human RAN

| Variant | effect of a mutation on the interaction |
| --- | --- |
| K179E | decreasing interaction |
